# Measurements reported in paper PMC10653861, “Three small partner proteins facilitate the type VII-dependent secretion of an antibacterial nuclease” (mBio, 2023).
# B1: EsaDEG trimer (complex)
# chain 1: MTKDIEYLTADYDNEKSSIQSVIDAIEGQDFLDVDTTMDDAVSDVSSLDEDGAISLTSSVVGPQGSKLMGYYQNELYDYASQLDSKMKEIIDTPFIEDIDKAFKGITNVKLENILIKNGGGHGRDTYGASGKIAKGDAKKSDSDVYSIDEILKSDQEFVKVIDQHYKEMKKEDKKLSKSDFEKMMTQGASCDYMTVAEAEELEEQKKKEEAIEIAALAGMVVLSCINPVAGAVAIGAYSAYSAANAATGKNIVTGRKLSKEERIMEGLSLIPLPGMGFLKGAGKSLMKLGFKGGEKFAVKTGLQKTMQQAVSRISPKMGMMKNSVLNQSRNFAQNTHVGQMLSNMRGQATHTVQQSRNWIGQQAQNVKRIVNNGLDKEIAHPFKQQLAPAGMGGIKFAETTTLRNMGQNIKRAVTPQNHVTHGPKDSMVRSEGKHSISSHEMNSSKYVESPNYTKVEFGEHYARLRPKKLKANIEYTTPTGHIYRTDHKGRIKEVYVDNLSLKDGDRNSHAQRTVGGEDRLPDDDGGALIARMFGGSKDIDNLVAQSKFINRPFKEKGHWYNLEKEWQEFLNSGKEVKNIKMEVKYSGNSQRPTIFKVEYEINGERNIRRILNK
# chain 2: MKDVKRIDYFSYEELTILGGSKLPLVNFELFDPSNFEEAKAALIEKELVTENDKLTDAGFKVATLVREYISAIVNIRINDMYFAPFSYEKDEYILLSRFKNNGFQIRIINKDIAWWSIVQSYPLLMRQEKSNDWDFKQIDDETLENLNNESIDTIGRVLEIEIYNHQGDPQQSLYNIYEQNDLLFIRYPLKDKVLNVHIGVINTFIRELFGFDTDENHINKAEE
# chain 3: MTFEEKLSKIYNEIANEISSMIPVEWEKVYTMAYIDDGGGEVFFNYTKPGSDDLNYYTNIPKEYNISVQVFDDLWMDLYDLFEELRDLFKEEDLEPWTSCEFDFTREGELKVSFDYIDWINSEFGQIGRQNYYKYRKFGILPETEYEINKVKEIEQYIKELEE
# notes: EsaD nuclease toxin of Staphylococcus aureus with H528A, as m1; EsaE chaperone of Staphylococcus aureus, as m5; EsaG immunity protein of Staphylococcus aureus, as m6; also called EsaDEG complex; not shown: His6, C-terminal, kept; copies: + +
# Molecular target: the molecule itself
# Test: cross-linking; purified complexes from the major SEC peaks, 0.5 mg/mL in 50 mM HEPES pH 7.5, 150 mM NaCl, 0.1% glutaraldehyde for 30 min at room temperature, quenched with tris; SEC and SDS-PAGE with Coomassie staining
protein,measurement,value
B1,binding result,binds
